# Experiments:
# [1] = tested on: CC(C)=CCC/C(C)=C/CC/C(C)=C/CO[P@@](=O)(O)OP(=O)(O)O; experiment: Steady-state kinetics of purified farnesene synthase variant FS_B_5.3; format: biochemical, Artemisia annua; settings: other: purified enzyme, 20.0 °C
# [2] = tested on: CC(C)=CCC/C(C)=C/CC/C(C)=C/CO[P@@](=O)(O)OP(=O)(O)O; experiment: cells, lysate or membranes named; settings: other: purified enzyme, steady-state; 20.0 °C
# Sequence of Artemisia annua β-farnesene synthase, wild type, SEQ ID NO: 111 (FS_Aa_Ec coding sequence, SEQ ID NO: 62) (Artemisia annua) (chain, as listed by the source): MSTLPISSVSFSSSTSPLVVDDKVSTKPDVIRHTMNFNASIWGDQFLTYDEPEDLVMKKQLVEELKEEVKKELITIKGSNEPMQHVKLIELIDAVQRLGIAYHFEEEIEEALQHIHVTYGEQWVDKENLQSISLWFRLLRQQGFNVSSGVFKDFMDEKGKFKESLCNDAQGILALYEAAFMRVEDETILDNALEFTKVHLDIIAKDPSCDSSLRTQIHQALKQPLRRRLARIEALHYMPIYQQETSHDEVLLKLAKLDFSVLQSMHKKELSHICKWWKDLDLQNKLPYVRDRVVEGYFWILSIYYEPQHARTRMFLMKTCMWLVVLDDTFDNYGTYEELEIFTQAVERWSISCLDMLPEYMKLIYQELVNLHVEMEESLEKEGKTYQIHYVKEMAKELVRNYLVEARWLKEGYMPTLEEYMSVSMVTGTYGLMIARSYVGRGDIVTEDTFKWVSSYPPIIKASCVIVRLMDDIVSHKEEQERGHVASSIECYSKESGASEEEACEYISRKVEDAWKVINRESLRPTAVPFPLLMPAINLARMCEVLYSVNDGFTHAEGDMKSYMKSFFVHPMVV
Substance,Km [1] [µM],kcat [1] [s⁻¹],Km [2] [µM],kcat [2] [s⁻¹]
"Artemisia annua β-farnesene synthase (SEQ ID NO: 111) variant FS_B_5.3 F11S/V24D/M35T/T196S/Y288F/T319S/I434T/T446N/I460V/V467I (FS_B_5.3_Ec; parent coding sequence FS_B, SEQ ID NO: 119) (Artemisia annua; F11S/I437T/I463V/M35T/T196S/T319S/T449N/V24D/V470I/Y288F)",1.18 ± 0.44,0.093 ± 0.009,–,–
"Artemisia annua β-farnesene synthase, wild type, SEQ ID NO: 111 (FS_Aa_Ec coding sequence, SEQ ID NO: 62) (Artemisia annua)",–,–,0.58 ± 0.19,0.071

# Source: patent US8236512B1, “Methods of developing terpene synthase variants” (Amyris, Inc., priority 2011, dated 2012)
